Data published in the DeepSol protein solubility set.

Assay: soluble on expression in E. coli; label from the status in PepcDB or PDB records

Row | Sequence | soluble on expression in E. coli
1 | GSMEPGPDGPAASGPAAIREGWFRETCSLWPGQALSLQVEQLLHHRRSRYQDILVFRSKTYGNVLVLDGVIQCTERDEFSYQEMIANLPLCSHPNPRKVLIIGGGDGGVLREVVKHPSVESVVQCEIDEDVIQVSKKFLPGMAIGYSSSKLTLHVGDGFEFMKQNQDAFDVIITDSSDPMGPAESLFKESYYQLMKTALKEDGVLCCQGECQWLHLDLIKEMRQFCQSLFPVVAYAYCTIPTYPSGQIGFMLCSKNPSTNFQEPVQPLTQQQVAQMQLKYYNSDVHRAAFVLPEFARKALNDVS | soluble
2 | MNLKDKILGVAKELFIKNGYNATTTGEIVKLSESSKGNLYYHFKTKENLFLEILNIEESKWQEQWKKEQIKCKTNREKFYLYNELSLTTEYYYPLQNAIIEFYTEYYKTNSINEKMNKLENKYIDAYHVIFKEGNLNGEWSINDVNAVSKIAANAVNGIVTFTHEQNINERIKLMNKFSQIFLNGLSKHHHHHH | soluble
3 | MKKIFMMVHELDVNKGGMTSSMFNRSKEFYDADIPADIVTFDYKGNYDEIIKALKKQGKMDRRTKMYNVFEYFKQISNNKHFKSNKLLYKHISERLKNTIEIEESKGISRYFDITTGTYIAYIRKSKSEKVIDFFKDNKRIERFSFIDNKVHMKETFNVDNKVCYQVFYDEKGYPYISRNINANNGAVGKTYVLVNKKEFKNNLALCVYYLEKLIKDSKDSIMICDGPGSFPKMFNTNHKNAQKYGVIHVNHHENFDDTGAFKKSEKYIIENANKINGVIVLTEAQRLDILNQFDVENIFTISNFVKIHNAPKHFQTEKIVGHISRMVPTKRIDLLIEVAELVVKKDNAVKFHIYGEGSVKDKIAKMIEDKNLERNVFLKGYTTTPQKCLEDFKLVVSTSQYEGQGLSMIEAMISKRPVVAFDIKYGPSDFIEDNKNGYLIENHNINDMADKILQLVNNDVLAAEFGSKARENIIEKYSTESILEKWLNLFNS | not soluble
4 | MAHHHHHHMEEESHALKDPWFVSYIPQLTTEIVKNNYEGDWNLAKEALQQPLDYVRTVEEFWSTLNSLPKLHQLESSSTFVFARNNVDASYEAFPNGTRIIVDIRKAAMAEKATAVILSSVIGESVSQEVCGGKPICDVLRLSSRPNKESPELVRLEVWLSDQTYGKAVLAYVRKALNDVGMSQPHVIFGESLFEKEKKKKGK | soluble
5 | MIIKGRAHKFGDDVDTDAIIPGPYLRTTDPYELASHCMAGIDENFPKKVKEGDVIVAGENFGCGSSREQAVIAIKYCGIKAVIAKSFARIFYRNAINVGLIPIIANTDEIKDGDIVEIDLDKEEIVITNKNKTIKCETPKGLEREILAAGGLVNYLKKRKLIQSKKGVKT | soluble
6 | MRVCVIGAGLSGLAMGHALKERGISFVCLEKAPDVGGIWRQPGAGERGPGYQSLHLNTARQLTGYADFPMPSDYPLYPRHDQVAAYLRSFAEWAGLLDHVELRTEVLSVRQDSDGSWTVVSRDADGAQSARRFEQVVVASGHHTDPALPDPLPAGADSFAGTILHSLDYRDGGDFAGRRVVVVGLGASAVDIAADLSRHAERTLLSVRRGLHIVPKQVFGMSLDEIAEAPWWNEMPFAERRRWVEQALLVARGRLSDYGLPEPDHPILSSATTLSDEILSRIRHGAVTPKPAIASFESDRVVFTDGSSEAADTVVYCTGFHMTFPFLPPGCPVAADGAVELYRRIVPADRPGLYFVGLVRPAGALTRLVEAQAQWVARLVDGAAALPGTEEMREEISTYLAGIVERYGRTRGASIQVDVSPYLAEFREPLPVLEHHHHHH | soluble
7 | SAAVGAEARGAWCVPCLVSLDTLQELCRKEKLTCKSIGITKRNLNNYEVEYLCDYKVVKDMEYYLVKWKGWPDSTNTWEPLQNLKCPLLLQQFSNDKHNYLSQVITSEEAERRGQFYDNKGITYLFDLDYESDEFTVDAARYGNVSHFVNHSCDPNLQVFNVFIDNLDTRLPRIALFSTRTINAGEELTFDYQMKGSGDISSDSIDHSPAKKRVRTVCKCGAVTCRGYLN | soluble
